Assays:
[1] = target: human kappa opioid receptor Tango construct (tTA-hKOR) (human) (UniProt P41145)
[2] = target: human kappa opioid receptor fused to the alpha7 nicotinic signal peptide and eGFP (pcDNA3.1) (human) (UniProt P41145)
[3] = target: human kappa opioid receptor, stably expressed in CHO cells (hKOR-CHO) (human) (UniProt P41145)
Sequence of human kappa opioid receptor, stably expressed in CHO cells (hKOR-CHO) (human) (P41145 whole entry): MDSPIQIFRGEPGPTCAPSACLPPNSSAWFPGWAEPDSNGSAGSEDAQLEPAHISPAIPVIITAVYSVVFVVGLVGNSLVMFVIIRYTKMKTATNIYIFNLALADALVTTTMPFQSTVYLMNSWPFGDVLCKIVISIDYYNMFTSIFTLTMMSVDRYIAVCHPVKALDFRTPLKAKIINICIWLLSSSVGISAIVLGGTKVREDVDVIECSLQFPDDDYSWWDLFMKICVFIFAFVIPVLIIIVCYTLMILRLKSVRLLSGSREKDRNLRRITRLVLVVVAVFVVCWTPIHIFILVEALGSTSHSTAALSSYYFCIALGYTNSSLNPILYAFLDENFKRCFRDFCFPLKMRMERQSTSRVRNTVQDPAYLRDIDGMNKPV

Sequence of human kappa opioid receptor Tango construct (tTA-hKOR) (human) (P41145 whole entry, the tested form may be a part): as the sequence (P41145 whole entry) above
Sequence of human kappa opioid receptor fused to the alpha7 nicotinic signal peptide and eGFP (pcDNA3.1) (human) (P41145 whole entry, the tested form may be a part): as the sequence (P41145 whole entry) above

Substance | PRESTO-Tango β-arrestin recruitment: fold shift of EC50 against the mean of same day DynA WT controls [1] | TRUPATH (BRET) G-protein dissociation, Gα3 subunit: fold shift of EC50 against the mean of same day DynA WT controls [2] | EC50 of [35S]GTPγS binding to hKOR-CHO cell membranes (G-protein activation) [3] | efficacy (maximal [35S]GTPγS binding to hKOR-CHO cell membranes) [3]
Dynorphin A L5S mutant peptide | 13 fold shift | 7 fold shift |  | 
Dynorphin A R6W mutant peptide | 16 fold shift | 11 fold shift | 105 nM | 1240 CPM
Dynorphin A R9C mutant peptide | 5 fold shift | 3 fold shift |  | 

Source: PMC8698333
